This is an account of results in patent publication US20140287471A1, “VARIANT CBH I POLYPEPTIDES WITH REDUCED PRODUCT INHIBITION” (BP CORPORATION NORTN AMERICA INC., priority 2011, published 2014).

B1: 268— Phe (protein, UniProt P62694 18-513, looked up, variant R268F)
Exoglucanase 1: QSACTLQSETHPPLTWQKCSSGGTCTQQTGSVVIDANWRWTHATNSSTNCYDGNTWSSTLCPDNETCAKNCCLDGAAYASTYGVTTSGNSLSIGFVTQSAQKNVGARLYLMASDTTYQEFTLLGNEFSFDVDVSQLPCGLNGALYFVSMDADGGVSKYPTNTAGAKYGTGYCDSQCPRDLKFINGQANVEGWEPSSNNANTGIGGHGSCCSEMDIWEANSISEALTPHPCTTVGQEICEGDGCGGTYSDNFYGGTCDPDGCDWNPYRLGNTSFYGPGSSFTLDTTKKLTVVTQFETSGAINRYYVQNGVTFQQPNAELGSYSGNELNDDYCTAEEAEFGGSSFSDKGGLTQFKKATSGGMVLVMSLWDDYYANMLWLDSTYPTNETSSTPGAVRGSCSTSSGVPAQVESQSPNAKVTFSNIKFGPIGSTGNPSGGNPPGGNRGTTTTRRPATTTGSSPGPTQSHYGQCGGIGYSGPTVCASGTTCQVLNPYYSQCL
B2: 268— Tyr (protein, UniProt P62694 18-513, looked up, variant R268Y)
Exoglucanase 1: B1 Exoglucanase 1 with F251Y
B3: 268— Trp (protein, UniProt P62694 18-513, looked up, variant R268W)
Exoglucanase 1: B1 Exoglucanase 1 with F251W
B4: 268— Asp (protein, UniProt P62694 18-513, looked up, variant R268D)
Exoglucanase 1: B1 Exoglucanase 1 with F251D
B5: 268_+411A Gln (protein, UniProt P62694 18-513, looked up, variant R268Q R411A)
Exoglucanase 1: B1 Exoglucanase 1 with F251Q, R394A
B6: R411L (protein, UniProt P62694 18-513, looked up, variant R411L)
Exoglucanase 1: B1 Exoglucanase 1 with F251R, R394L
B7: R411D (protein, UniProt P62694 18-513, looked up, variant R411D)
Exoglucanase 1: B1 Exoglucanase 1 with F251R, R394D
B8: R268F (protein, UniProt P62694 18-513, looked up, variant R268F)
Exoglucanase 1: B1 Exoglucanase 1
B9: R411N (protein, UniProt P62694 18-513, looked up, variant R411N)
Exoglucanase 1: B1 Exoglucanase 1 with F251R, R394N
B10: R411T (protein, UniProt P62694 18-513, looked up, variant R411T)
Exoglucanase 1: B1 Exoglucanase 1 with F251R, R394T
B11: R411E (protein, UniProt P62694 18-513, looked up, variant R411E)
Exoglucanase 1: B1 Exoglucanase 1 with F251R, R394E
B12: R411Q (protein, UniProt P62694 18-513, looked up, variant R411Q)
Exoglucanase 1: B1 Exoglucanase 1 with F251R, R394Q
B13: 268N: CBH I variant with site 268 mutated to asparagine (protein, UniProt P62694 18-513, looked up, variant R268N)
Exoglucanase 1: B1 Exoglucanase 1 with F251N
B14: R411P (protein, UniProt P62694 18-513, looked up, variant R411P)
Exoglucanase 1: B1 Exoglucanase 1 with F251R, R394P
B15: R411F (protein, UniProt P62694 18-513, looked up, variant R411F)
Exoglucanase 1: B1 Exoglucanase 1 with F251R, R394F
B16: R268H (protein, UniProt P62694 18-513, looked up, variant R268H)
Exoglucanase 1: B1 Exoglucanase 1 with F251H
B17: R411C (protein, UniProt P62694 18-513, looked up, variant R411C)
Exoglucanase 1: B1 Exoglucanase 1 with F251R, R394C
B18: R268Y (protein, UniProt P62694 18-513, looked up, variant R268Y)
Exoglucanase 1: B1 Exoglucanase 1 with F251Y
B19: R268C (protein, UniProt P62694 18-513, looked up, variant R268C)
Exoglucanase 1: B1 Exoglucanase 1 with F251C
B20: R268I (protein, UniProt P62694 18-513, looked up, variant R268I)
Exoglucanase 1: B1 Exoglucanase 1 with F251I
B21: R268R (protein, UniProt P62694 18-513, looked up)
Exoglucanase 1: B1 Exoglucanase 1 with F251R
B22: R268D (protein, UniProt P62694 18-513, looked up, variant R268D)
Exoglucanase 1: B1 Exoglucanase 1 with F251D
B23: R268T (protein, UniProt P62694 18-513, looked up, variant R268T)
Exoglucanase 1: B1 Exoglucanase 1 with F251T
B24: 411 S: CBH I variant with site 411 mutated to serine (protein, UniProt P62694 18-513, looked up, variant R411S)
Exoglucanase 1: B1 Exoglucanase 1 with F251R, R394S
B25: R411V (protein, UniProt P62694 18-513, looked up, variant R411V)
Exoglucanase 1: B1 Exoglucanase 1 with F251R, R394V
B26: 268S: CBH I variant with site 268 mutated to serine (protein, UniProt P62694 18-513, looked up, variant R268S)
Exoglucanase 1: B1 Exoglucanase 1 with F251S
B27: 268A/411S: CBH I variant with site 268 mutated to alanine and site 411 to serine (protein, UniProt P62694 18-513, looked up, variant R268A R411S)
Exoglucanase 1: B1 Exoglucanase 1 with F251A, R394S

Changes are numbered by the printed parent chain. In names and notes the source's numbering stands.

The nature of one experiment: 4-MUL assay, specific activity (Example 2). Type of experiment: biochemical. Conditions: primary screening; 10 μL enzyme; n=1. How it is done:
(§1) CBH I activity on was measured using the 4-MUL assay using gluconolactone to inhibit any BG activity. The fluorogenic 4-MUL substrate (SIGMA) was prepared at 100 mM concentration in DMSO. Assays were run in black 96-well-flat-bottomed plates (Costar) and 4-MU fluorescence was read on a BioTek H4 plate reader (ex/em 365/450 nm). Assay plates were filled with buffer (final concentrations of 100 mM MES, pH 6, 25 mM gluconolactone, with or without cellobiose; cellobiose concentrations are listed with appropriate data sets), to which enzyme mixture was added (10-30 μl, 5 μg/mL final) and then assays were initiated by addition of 4-MUL (0.5 mM final concentration in 100 μl total volume). Enzyme mixtures were either CBH I variants from harvested supernatants or standards. Standards included: a negative control, consisting of harvested supernatant from the CBH I knock-out strain; a positive control, consisting of wild-type CBH I from harvested supernatants; and, a commercial CBH I standard (E-CBHI from Megazymes). Activity standards were run by serial dilution of commercial CBH I from 40 to 0.02 μg/mL and 4-MU (SIGMA, prepared at 20 mM in DMSO) (in dilution increments of 2-fold; all dilutions were made using harvested supernatant from the knock-out control). Kinetic rates were monitored over the first 15 mins following 4-MUL addition; initial rates were calculated based on data in the linear range. After 1 hr, a final endpoint read was taken, both before and after reaction quenching (100 μL of 200 mM Sodium Carbonate, pH 10.0). Activity was calculated for kinetic and endpoint reads; background resulting from the CBH I knock-out supernatant remained negligible. 4MU standard curves and HPLC quantification values were used to calculate specific activity.
The specific activity (SA) of the variant library was evaluated in a secondary 4-MUL assay. […] On average, a mutation at position 268 increases the specific activity by 2.5 fold over that of wild type. A mutation at 268 in combination with 411 is around 1.5-1.6 fold higher than wild-type, on average.
For the molecule B1, the “SA (μmol 4 MU/min/mg) (MUL Data)” value is given as 0.70 μmol 4 MU/min/mg.
The same measure, in the same setting: in the case of B2 it was 0.65 μmol 4 MU/min/mg; in that of B3, 1.31 μmol 4 MU/min/mg.
Still for that read-out and setting: then B4, with 0.67 μmol 4 MU/min/mg.
Consider B5, for which the “SA (μmol 4 MU/min/mg) (MUL Data)” value is listed as −0.45 μmol 4 MU/min/mg.

Another experiment in a line: 4-MUL cellobiose tolerance/inhibition assay, dose-response IC50 (Example 2). In kind it is biochemical. As to conditions: 1 mM cellobiose; primary screening; n=1. The method, then: as §1
Tolerance/inhibition values represent activity ratios and/or percent activity remaining/percent activity decreased in the presence versus the absence of cellobiose. Tolerant variants show less inhibition in the presence of cellobiose as compared to wild type, where an activity ratio of 1 (with vs. without a given concentration of cellobiose) is equivalent to 0% inhibition by cellobiose, or 100% tolerance. The effect of cellobiose on CBH I variant performance was monitored by dose-response in the 4MUL assay. Dose-response curves were generated by assaying variant activity in the presence of 6-8 different cellobiose concentrations ranging up to 100 mM cellobiose. CBH I samples were diluted to 5 μg/mL final concentration or were used directly in the case of protein quantification levels below 5 μg/mL. Half maximal inhibitory concentration (IC50) values were determined by plotting 4MUL activity versus cellobiose concentration and fitting with a four parameter dose-response fitting algorithm, with zero activity (or 100% inhibition) constrained to background activity (as established by CBH I knockout values) and with automatic outlier elimination (on GraphPad Prism 5).
Harvested supernatants from active variant isolates were evaluated for cellobiose tolerance at 1 mM cellobiose in the 4-MUL activity assay. Table 8 lists the tolerance of variants at 1 mM. […] Additional cellobiose concentrations at 0.25, 5, 10, 50, and 100 mM were tested leading to full dose-response curves for which half maximal inhibitory concentration (IC50) values were generated (Table 8). The IC50 values support that the variant library has decreased product inhibition, or increased tolerance to cellobiose, when compared to the wild-type enzyme (WT IC50=0.03 mM; see first entry, Table 8).
In one example, the cellobiose tolerance of the library was explored in more detail by generating dose-response curves and determining half maximal inhibitory concentration (IC50) values, the point at which the enzyme is 50% inhibited.
Take B1: the “Tolerance at 1 mM CB (MUL Data)” value amounted to 21%.
Still for that read-out and setting: in the case of B2 it was 35%.
Same read-out and setting: in the case of B3 it was 42%; in that of B4, 44%.

Staying with this experiment, now noted: Secondary screening; 30 μl harvested supernatant (CBH I levels lower than 5 μg/mL); cellobiose range 0.00085-100 mM; read-out: IC50.
Regarding B6, the IC50 amounted to 6390 µM.
Same read-out and setting: then B7, with 1640 µM; and B8, with 515 µM.
Take B9: the IC50 was found to be 7900 µM.
Same read-out and setting: then B10, with 2020 µM.
The same measure, in the same setting: then B11, with 3380 µM.
On the same count and under the same terms, in the case of B12 it was 2510 µM.

Staying with this experiment, now noted: Secondary screening; CBH I levels normalized to 5 μg/mL; cellobiose range 0.00085-100 mM; read-out: IC50.
B13: the concentration for half-maximal inhibition (IC50) was 482 µM.
As for B14, the IC50 was determined as 1270 µM.
Take B15: the IC50 worked out at 7580 µM.
B16: the half-inhibitory concentration (IC50) came to 283 µM.
On to B7, for which the IC50 is 1580 µM.
The same measure, in the same setting: then B17, with 1310 µM; and B18, with 434 µM.
B10: the concentration for half-maximal inhibition (IC50) was found to be 2000 µM.
Take B19: the IC50 was 351 µM.
Consider B20, for which the 50% inhibitory concentration (IC50) came to 484 µM.
Same read-out and setting: then B21, with 52 µM; and B22, with 467 µM; and B23, with 349 µM.
Regarding B24, the 50% inhibitory concentration (IC50) was determined as 895 µM.
The same measure, in the same setting: in the case of B25 it was 2900 µM; in that of B26, 452 µM.

The same experiment, now with this note: averaged IC50 values from Tables 8-11; read-out: measured IC50 of cellobiose (merged values).
With B13, the 50% inhibitory concentration (IC50) came out at 490 µM.

The experiment is the same for the next values; noted with them: primary screening; 10 μL enzyme; cellobiose range 0.0001-100 mM; n=1; read-out: IC50 (MUL Data).
Regarding B1, the IC50 was found to be 400 µM.
As for B2, the IC50 is 450 µM.
Same read-out and setting: then B3, with 610 µM; and B4, with 900 µM.

The same experiment, now with this note: secondary screening; CBH I levels normalized to 5 μg/mL; cellobiose range 0.0001-100 mM; read-out: Average IC50.
Regarding B13, the IC50 turned out to be 405 µM.
On the same count and under the same terms, in the case of B14 it was 1050 µM.
Same read-out and setting: in the case of B15 it was 5390 µM; in that of B16, 209 µM.
Still for that read-out and setting: then B17, with 886 µM.
On to B9, for which the IC50 amounted to 6720 µM.
Take B18: the IC50 turned out to be 344 µM.
The same measure, in the same setting: then B19, with 335 µM.
For B20, the IC50 amounted to 320 µM.
In the case of B21, the IC50 was found to be 46 µM.
For B22, the IC50 is 431 µM.
For the molecule B23, the half-maximal inhibitory concentration (IC50) was found to be 360 µM.
Same read-out and setting: then B24, with 762 µM; and B25, with 3190 µM; and B26, with 406 µM.

Staying with this experiment, now noted: serine variants; unit not given in the legend; read-out: IC50 values (representative IC50 curves, FIG. 9).
In the case of B27, the IC50 turned out to be 6800 µM.
Same read-out and setting: then B24, with 890 µM.
Still for that read-out and setting: then B26, with 450 µM.

A word on the IC50: it is the midpoint of a concentration-inhibition curve.
